{
  "source": "patent US20140288277",
  "key": {"[1]": {"tested_on": "Fab16 (anti-FNIII, YSGR Min clone 16) (synthetic)", "assay": "filter", "conditions": "filter binding / dot blot assay"}, "[2]": {"tested_on": "Fab8 (anti-P4-P6, YSGR Min clone 8) (synthetic)", "assay": "FP", "conditions": "filter binding / dot blot assay"}, "[3]": {"tested_on": "Fab11 (anti-P4-P6, YSGR Min clone 11) (synthetic)", "assay": "filter", "conditions": "filter binding / dot blot assay"}, "[4]": {"tested_on": "Fab29 (anti-VCIII, YSGR Min clone 29) (synthetic)", "assay": "filter", "conditions": "filter binding / dot blot assay; Example 2 names the V. cholerae target VCLD1"}, "[5]": {"tested_on": "Fab30 (anti-VCIII, YSGR Min clone 30) (synthetic)", "assay": "filter", "conditions": "filter binding / dot blot assay; Example 2 names the V. cholerae target VCLD1"}, "[6]": {"tested_on": "T1, Fab7 (anti-tRNAiMet) (synthetic)", "T1 sequence": "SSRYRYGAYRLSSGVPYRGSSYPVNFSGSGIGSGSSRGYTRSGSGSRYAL", "assay": "filter", "conditions": "soluble Fab; discrete complex also in native gel"}, "[7]": {"tested_on": "Fab1 (anti-tRNAiMet, YSGRX clone 1), phage displayed (synthetic)", "assay": "competition", "conditions": "competitive phage ELISA; selection RNA carried a 29 nt 3' tag"}},
  "data": [
    {"substance": "FNIII glycine riboswitch", "values": [
      {"measurement": "Kd", "setting": "[1]", "value": 160, "unit": "nM"}
    ]},
    {"substance": "P4-P6 domain of Tetrahymena group I intron", "values": [
      {"measurement": "Kd", "setting": "[2]", "value": 53, "unit": "nM"},
      {"measurement": "Kd", "setting": "[3]", "value": 20, "unit": "nM"}
    ]},
    {"substance": "VCIII glycine riboswitch", "values": [
      {"measurement": "Kd", "setting": "[4]", "value": 38, "unit": "nM"},
      {"measurement": "Kd", "setting": "[5]", "value": 22, "unit": "nM"}
    ]},
    {"substance": "human initiator tRNAiMet transcript", "values": [
      {"measurement": "Kd", "setting": "[6]", "value": 59, "unit": "nM"},
      {"measurement": "Kd", "setting": "[7]", "value": 53, "unit": "nM"}
    ]}
  ]
}
